Test results reported in US20150065444.

Target: Purified 6x His-tagged PCNA, P12004
Sequence (P12004 whole entry): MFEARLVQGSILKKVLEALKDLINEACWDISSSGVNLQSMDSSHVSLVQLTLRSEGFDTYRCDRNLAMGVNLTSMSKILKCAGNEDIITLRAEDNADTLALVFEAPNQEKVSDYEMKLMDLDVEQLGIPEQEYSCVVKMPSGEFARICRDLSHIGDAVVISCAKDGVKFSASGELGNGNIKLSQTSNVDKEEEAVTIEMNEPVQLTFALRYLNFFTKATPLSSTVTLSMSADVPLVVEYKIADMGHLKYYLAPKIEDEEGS

B1: Purified recombinant 6x His-tagged Arm1 (protein)
chain: MAVVPASLSGQDVGSFAYLTIKDRIPQILTKVIDTLHRHKSEFFEKHGEEGVEAEKKAISLLSKLRNELQTDKPFIPLVEKFVDTDIWNQYLEYQQSLLNESDGKSRWFYSPWLLVECYMYRRIHEAIIQSPPIDYFDVFKESKEQNFYGSQESIIALCTHLQQLIRTIEDLDENQLKDEFFKLLQISLWGNKCDLSLSGGESSSQNTNVLNSLEDLKPFILLNDMEHLWSLLSNCKKTREKASATRVYIVLDNSGFELVTDLILADFLLSSELATEVHFYGKTIPWFVSDTTIHDFNWLIEQVKHSNHKWMSKCGADWEEYIKMGKWVYHNHIFWTLPHEYCAMPQVAPDLYAELQKAHLILFKGDLNYRKLTGDRKWEFSVPFHQALNGFHPAPLCTIRTLKAEIQVGLQPGQGEQLLASEPSWWTTGKYGIFQYDGPL
PCNA-dependent carboxyl methyltransferase activity (vapour diffusion assay): Arm possesses a PCNA-dependent carboxyl methyltransferase activity
